Experimental data reported in patent US20230287145A1 (Hoffmann-La Roche, published 2023).
Where a chain is given by its changes, count along the chain named. Names may count otherwise.

B1: TYRP1 TCB containing optimized anti-CD3 antibody clone P035.093 (bispecific antibody, human IgG1, kappa, L234A L235A)
heavy 1: not shown
heavy 2: QVQLVQSGAEVKKPGASVKVSCKASGFNIKDYFLHWVRQAPGQGLEWMGWINPDNGNTVYAQKFQGRVTMTADTSTSTVYMELSSLRSEDTAVYYCTRRDYTYEKAALDYWGQGTLVTVSSASTKGPSVFPLAPSSKSTSGGTAALGCLVEDYFPEPVTVSWNSGALTSGVHTFPAVLQSSGLYSLSSVVTVPSSSLGTQTYICNVNHKPSNTKVDEKVEPKSCDKTHTCPPCPAPEAAGGPSVFLFPPKPKDTLMISRTPEVTCVVVDVSHEDPEVKFNWYVDGVEVHNAKTKPREEQYNSTYRVVSVLTVLHQDWLNGKEYKCKVSNKALGAPIEKTISKAKGQPREPQVCTLPPSRDELTKNQVSLSCAVKGFYPSDIAVEWESNGQPENNYKTTPPVLDSDGSFFLVSKLTVDKSRWQQGNVFSCSVMHEALHNHYTQKSLSLSP
light 1: DIQMTQSPSSLSASVGDRVTITCRASGNIYNYLAWYQQKPGKVPKLLIYDAKTLADGVPSRFSGSGSGTDFTLTISSLQPEDVATYYCQHFWSLPFTFGQGTKLEIKRTVAAPSVFIFPPSDRKLKSGTASVVCLLNNFYPREAKVQWKVDNALQSGNSQESVTEQDSKDSTYSLSSTLTLSKADYEKHKVYACEVTHQGLSSPVTKSFNRGEC
light 2: EVQLLESGGGLVQPGGSLRLSCAASGFTFSSYAMNWVRQAPGKGLEWVSRIRSKYNNYATYYADSVKGRFTISRDDSKNTLYLQMNSLRAEDTAVYYCVRASNFPASYVSYFAYWGQGTLVTVSSASVAAPSVFIFPPSDEQLKSGTASVVCLLNNFYPREAKVQWKVDNALQSGNSQESVTEQDSKDSTYSLSSTLTLSKADYEKHKVYACEVTHQGLSSPVTKSFNRGEC
notes: 2+1 IgG CrossFab, inverted, with charge modifications; knob-into-hole, P329G L234A L235A; also called CD3opt (P035.093); CD3 P035.093
B2: Anti-idiotypic IgG 4.24.72 (parental chimeric antibody) (antibody, V domains shown)
VH: QIQLVQSGPELKKPGETVKISCKASGYTVTDYSMNWVKQAPGKCLKWMGWINTETGEPRYTDDFKGRFAFSLETSASTAYLQINNLKNEDSATYFCAREGDYDVFDYWGHGTTLKVSS
VL: DIVLTQSPASLAVSLGQRATISCRASKSVSTSSYSYMHWYQQKPGQPPKLLIKYVSYLESGVPARFSGSGSGTDFTLNIHPVEEEDAATYYCQHSREFPYTFGCGTKLEIK
notes: Tested as chimeric IgG; also called ID_4.24.72
B3: Anti-CD3 antibody clone P035.093 in monovalent human IgG1 format (antibody, V domains shown)
VH: EVQLLESGGGLVQPGGSLRLSCAASGFTFSSYAMNWVRQAPGKGLEWVSRIRSKYNNYATYYADSVKGRFTISRDDSKNTLYLQMNSLRAEDTAVYYCVRASNFPASYVSYFAYWGQGTLVTVSS
VL: QAVVTQEPSLTVSPGGTVTLTCGSSTGAVTTSNYANWVQEKPGQAFRGLIGGTNKRAPGTPARFSGSLLGGKAALTLSGAQPEDEAEYYCALWYSNLWVFGGGTKLTVL
notes: Monovalent human IgG1 with crossed VH and VL domains; knob-into-hole; P329G L234A L235A; also called P035.093 (monovalent IgG)
B4: CD3orig in monovalent human IgG1 format (antibody, V domains shown)
VH: not shown
VL: B3 VL
notes: Monovalent human IgG1 with crossed VH and VL domains; knob-into-hole; P329G L234A L235A; also called CD3orig (monovalent IgG)
B5: Anti-CD3 antibody clone P033.078 in monovalent human IgG1 format (antibody, V domains shown)
VH: B3 VH with S30E, N57E, A106S, Y108F, A113G
VL: B3 VL
notes: knob-into-hole; P329G L234A L235A; also called P033.078 (monovalent IgG)

What was measured:
[1] = target: T1, Human CD3ε stalk-Fc(knob)-Avi/CD3δ stalk-Fc(hole) (human); experiment: SPR, biotinylated human CD3ε/δ on SA chip, TCB at 2 µg/ml; response normalised to anti-huIgG capture and referenced to the unstressed sample; after 2 weeks at pH 7.4/37 °C
T1 construct: Heterodimeric Fc fusion; also called human CD3ε/δ; Human CD3 epsilon stalk-Fc(knob)-Avi
Experimental: (§1) In order to assess the effect of the deamidation site removal and its effect on the stability of the antibodies, the optimized anti-CD3 antibodies (in TCB format) were incubated for 14 days at 37° C., pH 7.4 and at 40° C., pH 6 and further analyzed by SPR for their binding capability to human CD3ε/δ. Samples stored at −80° C. pH 6 were used as reference. The reference samples and the samples stressed at 40° C. were in 20 mM His, 140 mM NaCl, pH 6.0, and the samples stressed at 37° C. in PBS, pH 7.4, all at a concentration of 1.0 mg/ml. After the stress period (14 days) samples in PBS were dialyzed back to 20 mM His, 140 mM NaCl, pH 6.0 for further analysis.
(§2) All SPR experiments were performed on a Biacore T200 instrument (GE Healthcare) at 25° C. with HBS-P+ (10 mM HEPES, 150 mM NaCl pH 7.4, 0.05% Surfactant P20) as running and dilution buffer. Biotinylated human CD3ε/δ (see Example 3, SEQ ID NOs 41 and 42) as well as biotinylated anti-huIgG (Capture Select, Thermo Scientific, #7103262100) were immobilized on a Series S Sensor Chip SA (GE Healthcare, #29104992), resulting in surface densities of at least 1000 resonance units (RU). Anti-CD3 antibodies with a concentration of 2 μg/ml were injected for 30 s at a flow rate of 5 μl/min, and dissociation was monitored for 120 s. The surface was regenerated by injecting 10 mM glycine pH 1.5 for 60 s. Bulk refractive index differences were corrected by subtracting blank injections and by subtracting the response obtained from a blank control flow cell. For evaluation, the binding response 5 seconds after injection end was taken. To normalize the binding signal, the CD3 binding was divided by the anti-huIgG response (the signal (RU) obtained upon capture of the CD3 antibody on the immobilized anti-huIgG antibody). The relative binding activity was calculated by referencing each temperature stressed sample to the corresponding, non-stressed sample.

[2] = target: T1, Human CD3ε stalk-Fc(knob)-Avi/CD3δ …; experiment: SPR, biotinylated human CD3ε/δ on SA chip, TCB at 2 µg/ml; response normalised to anti-huIgG capture and referenced to the unstressed sample; after 2 weeks at pH 6.0/40 °C
Experimental: as §1, §2

[3] = target: T2, TCB with CD3 binding Fab CH2527 (analyte of Table 9); experiment: SPR, Biacore T200; anti-idiotypic IgG amine-coupled on CM5 chip, TCB as analyte; 1:1 Langmuir fit; single dilution series
T2 construct: also called CD3 CH2527; not shown: Target-cell arm (TYRP1 or FOLR1 16D5), constant regions and Fc
Experimental: (§3) SPR experiments were performed on a Biacore T200 with HBS-EP+ as running buffer (0.01 M HEPES pH 7.4, 0.15 M NaCl, 0.005% Surfactant P20 (BR-1006-69, GE Healthcare)). Three anti-idiotypic antibodies were directly immobilized by amine coupling on a CMS chip (GE Healthcare). A three-fold dilution series of the different T cell bispecifics (TCBs) was passed 20 over the ligand at 30 μl/min for 180 sec to record the association phase. The dissociation phase was monitored for 600 s and triggered by switching from the sample solution to HBS-EP+. The chip surface was regenerated after every cycle using one injection of 10 mM glycine pH 2.1 for 60 sec, followed by two injections of 30 sec. Bulk refractive index differences were corrected for by subtracting the response obtained on the reference flow cell 1. The affinity constants were derived from the kinetic rate constants by fitting to a 1:1 Langmuir binding using the Biaeval 5 software (GE Healthcare). The measure was performed with a single dilution series.
(§4) SPR analysis was evaluated with masks as IgGs (immobilized on CM5 chip) and TCBs with different CD3 binding Fabs as analytes.

[4] = target: T3, TCB with CD3 binding Fab P035.093 (analyte of Table 9); experiment: as above
T3 construct: not shown: Target-cell arm (TYRP1 or FOLR1 16D5), constant regions and Fc
Experimental: as §3, §4

[5] = target: B1; experiment: cell-based or functional assay
[6] = target: TYRP1 TCB with CD3 binder CH2527; experiment: cell-based or functional assay
[7] = target: T4, FOLR1 CD3 TCB P035.093; experiment: SPR, Biacore T200, 37 °C; FOLR1 CD3 TCB P035.093 captured on FOLR1-Fc (C1 chip), anti-idiotypic antibody as analyte; n=5; Stdev 140 s
T4 construct: Classical 2+1 TCB, knob-into-hole, PGLALA; the common light chain pairs with each of the Fabs; also called FOLR1 TCB CD3: P035.093
Experimental: (§5) Briefly, FOLR1-Fc was immobilized on a series s sensor chip C1 using standard amine coupling chemistry according to the manufacturer's instructions. […] The first flow cell was kept as mock surface. […] Dissociation was monitored for 300 s, the flow rate was set to 30 μl/min. The surface was regenerated by injecting 10 mM Glycine pH 2.0 for 60 s, followed by injecting 5 mM NaOH for 60 s at a flow rate of 5 μl/min. Bulk refractive index differences were corrected by subtracting the response obtained from flow cell one (mock surface) as well as by substracting buffer injections (double referencing). The derived curves were fitted to a 1:1 Langmuir binding model using the BIAevaluation software (GE Healthcare). […] All experiments were performed at 37° C. using HBS-N (10 mM HEPES, 150 mM NaCl pH 7.4, 0.05% Surfactant P-20).

[8] = target: T4, FOLR1 CD3 TCB P035.093; experiment: SPR, Biacore T200, 37 °C; FOLR1 CD3 TCB P035.093 captured on FOLR1-Fc (C1 chip), anti-idiotypic antibody 1.2-100 nM as analyte; 1:1 Langmuir fit; n=5; Stdev 0.4 nM
Experimental: as §5

[9] = target: T1, Human CD3ε stalk-Fc(knob)-Avi/CD3δ …; experiment: SPR, Biacore T200, 25 °C; monovalent IgG captured by anti-PG antibody on C1 chip, CD3ε/δ-Fc as analyte; 1:1 Langmuir fit; triplicates
Experimental: (§6) Kinetic constants were derived using the Biacore T200 Evaluation Software (GE Healthcare Life Sciences), to fit rate equations for 1:1 Langmuir binding by numerical integration. The half-life (t_{1/2}) of the interaction was calculated using the formula t_{1/2}=ln 2/koff.
(§7) To analyze the interaction to CD3, IgG molecules were captured for 240 s at 50 nM with a flow rate of 5 μl/min. Human and cynomolgus CD3ε stalk-Fc(knob)-Avi/CD3δ-stalk-Fc(hole) were passed at a concentration of 0.061-250 nM with a flow rate of 30 μl/min through the flow cells for 300 s. The dissociation was monitored for 800 s.

[10] = target: T5, Cynomolgus CD3ε stalk-Fc(knob)-Avi/CD3δ stalk-Fc(hole) (cynomolgus); experiment: as above
T5 construct: Heterodimeric Fc fusion; also called cynomolgus CD3ε/δ
Experimental: as §6, §7

[11] = target: T1, Human CD3ε stalk-Fc(knob)-Avi/CD3δ …; experiment: SPR, Biacore T200, 25 °C; monovalent IgG captured by anti-PG antibody on C1 chip, CD3ε/δ-Fc as analyte; triplicates
Experimental: as §6, §7

[12] = target: T5, Cynomolgus CD3ε stalk-Fc(knob)-Avi/CD3δ …; experiment: as above
Experimental: as §6, §7

[13] = target: T1, Human CD3ε stalk-Fc(knob)-Avi/CD3δ …; experiment: SPR, biotinylated human CD3ε/δ on SA chip, monovalent IgG; response normalised to anti-huIgG capture and referenced to the unstressed sample; after 2 weeks at pH 6.0/40 °C
Experimental: as §2

[14] = target: T1, Human CD3ε stalk-Fc(knob)-Avi/CD3δ …; experiment: SPR, biotinylated human CD3ε/δ on SA chip, monovalent IgG; response normalised to anti-huIgG capture and referenced to the unstressed sample; after 2 weeks at pH 7.4/37 °C
Experimental: as §2

[15] = target: T1, Human CD3ε stalk-Fc(knob)-Avi/CD3δ …; experiment: SPR, monovalent IgG format

T5 sequence (chain, as listed by the source mutant limits assumed, chain 1 of 2): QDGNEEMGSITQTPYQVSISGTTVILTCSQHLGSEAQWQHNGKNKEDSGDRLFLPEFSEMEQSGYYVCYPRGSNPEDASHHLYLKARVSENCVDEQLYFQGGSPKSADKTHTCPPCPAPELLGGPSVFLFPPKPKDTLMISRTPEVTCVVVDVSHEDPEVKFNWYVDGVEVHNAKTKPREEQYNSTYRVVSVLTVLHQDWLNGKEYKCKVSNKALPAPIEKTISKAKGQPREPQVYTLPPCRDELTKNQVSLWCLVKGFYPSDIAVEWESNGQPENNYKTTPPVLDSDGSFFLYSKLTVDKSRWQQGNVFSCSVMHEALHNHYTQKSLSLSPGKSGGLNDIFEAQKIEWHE
T5 sequence (chain, as listed by the source mutant limits assumed, chain 2 of 2): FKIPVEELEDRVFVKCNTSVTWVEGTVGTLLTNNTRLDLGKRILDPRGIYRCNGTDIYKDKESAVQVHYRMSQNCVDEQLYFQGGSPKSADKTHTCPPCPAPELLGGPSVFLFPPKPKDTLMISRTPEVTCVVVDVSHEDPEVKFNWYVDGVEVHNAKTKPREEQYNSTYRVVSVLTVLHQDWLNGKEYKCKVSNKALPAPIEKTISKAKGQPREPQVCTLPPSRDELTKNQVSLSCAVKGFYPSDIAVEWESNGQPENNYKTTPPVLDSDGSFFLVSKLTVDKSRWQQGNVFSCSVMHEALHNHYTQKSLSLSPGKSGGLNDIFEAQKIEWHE

Binder	Kd [9] [nM]	Kd [10] [nM]	t1/2 [11] [min]	t1/2 [12] [min]	binding activity [%] [13] [%]	binding activity [%] [14] [%]	koff [9] [s⁻¹]	kon [9] [M⁻¹ s⁻¹]	other results
B1	–	–	–	–	–	–	–	–	binding activity [%] [1]: 95%; binding activity [%] [2]: 97%
B2	–	–	–	–	–	–	–	–	Kd [3]: 4.7 nM; koff [3]: 0.000675 s⁻¹; kon [3]: 141000 M⁻¹ s⁻¹; Kd [4]: 2.1 nM; koff [4]: 0.000309 s⁻¹; kon [4]: 148000 M⁻¹ s⁻¹; IC50 (read off the curve): reduction of Jurkat NFAT luminescence by anti-ID 4.24.72 IgG, TYRP1 TCB (CD3 variant P035.093) at EC90 [5]: ~1 nM; IC50 (read off the curve): reduction of Jurkat NFAT luminescence by anti-ID 4.24.72 IgG, TYRP1 TCB (CH2527) at EC90 [6]: ~1 nM; t1/2 diss [7]: 446 s; Kd [8]: 1.5 nM
B3	0.456	0.224	8.25	11.8	100	–	–	–	–
B4	4.94	–	3.98	–	97	60	0.0029	587000	–
B5	0.771	0.403	8.69	11.1	98	95	0.00133	1.73e+06	fold of binding half-life over CD3orig [15]: > 2 fold; koff [10]: 0.00104 s⁻¹; kon [10]: 2.6e+06 M⁻¹ s⁻¹
